# Data taken from EP4269437A1 (Zhejiang Nanomab Technology Center Co. Ltd., dated 2023).
# Changes are numbered by the printed parent chain.
# T1: murine PD-1 protein (murine, UniProt Q02242 25-167, limits assumed)
# T1 construct: bought
# T1 sequence (looked up): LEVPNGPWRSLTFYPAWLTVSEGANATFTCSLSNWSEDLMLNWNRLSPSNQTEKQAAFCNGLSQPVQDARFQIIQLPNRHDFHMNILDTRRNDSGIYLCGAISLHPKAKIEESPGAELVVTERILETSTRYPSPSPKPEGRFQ
# T2: ICOS (UniProt Q9Y6W8 21-140, limits assumed)
# T2 construct: bought
# T2 sequence (looked up): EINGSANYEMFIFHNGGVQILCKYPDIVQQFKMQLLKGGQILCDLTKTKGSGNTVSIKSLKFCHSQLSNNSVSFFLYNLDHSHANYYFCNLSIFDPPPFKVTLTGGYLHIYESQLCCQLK
# B1: NB182 (Fc fusion)
# heavy: QVQLVESGGGLVQAGGSLRLSCAASGDTSFISAAGWYRQAPGKERELVAAITNTGITYYPDSVKGRFTISRDNAKNTVYLQMNNLKPEDTAVYYCNAGAPPPGGLGYDESDYWGQGTQVTVSS
# notes: not shown: IgG4 constant region of vector pCDNA3.4-IgG4
# B2: NB194-P29-z1 (Fc fusion)
# heavy: QVQLVESGGGLVQPGGSLRLSCSASGHSFSIYDMGWFRQAADKERESVAVINFGRGTTYYAESVKGRFTISRDNAKNTVYLQMNSLRAEDTAVYSCGIDRRQYGLGIPPLADHWGQGSQVTVSS
# notes: as for B1
# B3: NB194-P29-z2 (Fc fusion)
# heavy: B2 heavy with V2L
# notes: as for B1
# B4: NB194-P29-z3 (Fc fusion)
# heavy: B2 heavy with R19T
# notes: as for B1
# B5: NB194-P29-z4 (Fc fusion)
# heavy: B2 heavy with S23T
# notes: as for B1
# B6: NB194-P29-z5 (Fc fusion)
# heavy: B2 heavy with A41P
# notes: as for B1
# B7: NB194-P29-z6 (Fc fusion)
# heavy: B2 heavy with D42G
# notes: as for B1
# B8: NB194-P29-z7 (Fc fusion)
# heavy: B2 heavy with R72L
# notes: as for B1
# B9: NB194-P29-z8 (Fc fusion)
# heavy: B2 heavy with A41P, D42G
# notes: as for B1
# B10: NB194-P29-z9 (Fc fusion)
# heavy: B2 heavy with H27F, S28T
# notes: as for B1
# B11: NB194-P29-z10 (Fc fusion)
# heavy: B2 heavy with Q1E, V2L, S23A
# notes: as for B1
# B12: NB147 (Fc fusion)
# heavy: EVQVVESGGGVVQAGDSLRLSCVASGRTFSSVAMGWFRQAPGKEREFVAAISRSGGSAGYSDSVKDRSTISRDNAKNTVYLQMNSLKPEDTAVYFCAASELDFCSTLGCYDYWGQGIQVTFSS
# notes: as for B1
# B13: NB171 (Fc fusion)
# heavy: QVQLVESGGGLVQAGGSLRLSCAASGRTFSSYAMGWFRQALGKEREWIAGVSMSGRTTYYAAPVKDRFTISRDNAKNTVTLQMNSLKPEDTAVYYCAAGRAQAEIPIMRAQEYDSWGQGTQVTVSS
# notes: as for B1
# B14: NB173 (Fc fusion)
# heavy: QVQLQESGGGLVQAGGSLRLSCAASGRSFNSYAMGWFRQAPGKEREFVAAISQNGGTQGYAEAVKDRFTISRDNTNKVVALQMNSLKPEDTAAYYCAADGDASDISYAPPRDYEYDYWGQGTQVTVSS
# notes: as for B1
# B15: NB202 (Fc fusion)
# heavy: EVQVVESGGGLVQAGGSLRLSCTASGDTRLASAMGWYRQAPGKERELVAAITNSGLTYYADSVEGRFTISRDSAKNTVYLQMNSLKPEDTAVYYCNAGAPPPGGLGYDESDYWGQGTQVTVSS
# notes: as for B1
# B16: NB211 (Fc fusion)
# heavy: EVQVVETGGGLAQAGGSLRLSCAASGRTFSGYTVGWYRQSPGKEREFVAAISYSGGSTDYADSVKGRFTISRDNANNTVYLQMGSLKAEDTAVYYCNRVIRGTRDPSIYYVMDYWGKGTLVTVSS
# notes: as for B1
# B17: NB215 (Fc fusion)
# heavy: EVQVVESGGGLVQAGDSLRLSCAASGGTISGYEMGWFRQAPGKEREFVAGISRNGRSTGYSDSAKDRFTISRDNAKNTVYLQMNSLKPEDTAVYYCAAGLKADYGDSYVDTSTRNYNYWGQGTQVTVSS
# notes: as for B1
# B18: NB223 (Fc fusion)
# heavy: EVQLVESGGGLVQAGGSLRLSCAASGRTFSSYGMGWFRQAPGKEREFVAAVNWSNSSAYYADSVKDRFTISSDNAKSTIYLQMNSLKPEDTAVYYCRPYSDYVTYDPDDYDYWGQGTQVTVSS
# notes: as for B1
# B19: NB220 (Fc fusion)
# heavy: QVQLQESGGGLLQAGDSLRLSCIVSGRTFSSYAIGWFRQAPGKEREFVAGINWSGRSQYYSESVKDRFTVSIDNAKNTVYLQMNSLKPEDTAVYYCAAERHLGVPTVRDDEYDDWGQGTQVTVSS
# notes: as for B1
# B20: NB222 (Fc fusion)
# heavy: QVQLVESGGGLVQAGGSLRLSCAASGGTFSNFNVGWFRQAPGKEREFVAASNWSAGTTHYSDSVKGRFTISRDNAANTAYLQMNSLRPDDTAVYYCNRVIRGTTYPDVYYGMDYWGKGTLVTVSS
# notes: as for B1
# B21: NB532 (Fc fusion)
# heavy: QVQLVETGGGLVQAGGSLRLSCAASGRTFSSYNMGWFRQAPGKEREFVAAISWSGGSQGYAAAVKDRFTISRDNAKNTVYLQMNSLKAEDTAVYYCAAKYHSGSYYYTSIRPEEYDYWGQGTQVTVSS
# notes: as for B1
# B22: NB734 (Fc fusion)
# heavy: QVQLVETGGGLVQAGGSLRLSCAASGDTILFSAVGWHRQAPGKERELVAAITNSGVTYYADSVKGRFSISRDNAKNTVYLQMNSLKPEDTAVYYCNAGAPPPGEFGYDESDYWGQGTQVTVSS
# notes: as for B1
# B23: NB182-z4 (Fc fusion)
# heavy: B1 heavy with Q1E, A14P, A23S, A49S, A74S, K86R, P87A
# notes: format not restated; not shown: IgG4 constant region of vector pCDNA3.4-IgG4
# B24: NB182-z1 (Fc fusion)
# heavy: B1 heavy with Q1E, A14P, A23S, A49S, A74S, N84S, K86R, P87A
# notes: as for B23
# B25: NB182-z2 (Fc fusion)
# heavy: B1 heavy with Q1E, A14P, A23S, A49S, N84S, K86R, P87A
# notes: as for B23
# B26: NB182-z3 (Fc fusion)
# heavy: B1 heavy with Q1E, A14P, A23S, A49S, A74S, V78L, K86R, P87A
# notes: as for B23
# B27: NB182-z5 (Fc fusion)
# heavy: B1 heavy with Q1E, A14P, A23S, A74S, N84S, K86R, P87A, Q118L
# notes: as for B23
# B28: NB194-z5 (Fc fusion)
# heavy: EVQLVESGGGLVQPGGSLRLSCAASGRPFSIYDMGWFRQAPDKERESVAVINLSRGNTYYADSVKGRFTISRDNAKNTVYLQMNSLRAEDTAVYSCGVDRRQYGLGIPPLADHWGQGTQVTVSS
# notes: as for B23
# B29: NB194-z1 (Fc fusion)
# heavy: B28 heavy with N52S
# notes: as for B23
# B30: NB194-z2 (Fc fusion)
# heavy: B28 heavy with N52S, N74S
# notes: as for B23
# B31: NB194-z4 (Fc fusion)
# heavy: B28 heavy with S54A
# notes: as for B23
# Target: PD-1 on GS-J2/PD1 effector cells (UniProt Q15116 25-288, limits assumed)
# Sequence (Q15116 25-288 limits assumed): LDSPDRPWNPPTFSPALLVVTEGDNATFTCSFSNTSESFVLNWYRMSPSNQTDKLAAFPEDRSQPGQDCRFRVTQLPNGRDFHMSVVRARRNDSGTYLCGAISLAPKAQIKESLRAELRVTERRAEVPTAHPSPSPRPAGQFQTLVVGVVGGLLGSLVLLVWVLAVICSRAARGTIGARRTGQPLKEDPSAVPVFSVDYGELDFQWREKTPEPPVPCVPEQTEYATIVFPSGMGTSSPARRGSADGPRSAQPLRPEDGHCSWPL
# Assay: cell-based or functional assay
row,Reporter Gene Assay EC50 (luciferase),Binder
1,16.3 nM,B1

# Target: T1, murine PD-1 protein
# Assay: ELISA on coated protein, anti-human Fc HRP
row,binding result,Binder
1,no binding (tested: 0.1µg),B1

# Target: T3, CTLA-4 (UniProt P16410 36-161, limits assumed)
# T3 construct: bought
# T3 sequence (P16410 36-161 limits assumed): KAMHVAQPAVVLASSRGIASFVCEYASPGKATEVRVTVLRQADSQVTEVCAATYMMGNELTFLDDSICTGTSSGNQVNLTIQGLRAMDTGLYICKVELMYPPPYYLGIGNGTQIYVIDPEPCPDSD
# Assay: ELISA on coated protein, anti-human Fc HRP
row,binding result,Binder
1,no binding,B1

# Target: T2, ICOS
# Assay: ELISA on coated protein, anti-human Fc HRP
row,binding result,Binder
1,no binding,B1

# Target: T4, CD28 (UniProt P10747 19-152)
# T4 construct: bought
# Assay: ELISA on coated protein, anti-human Fc HRP
row,binding result,Binder
1,no binding,B1

# Target: T5, PD-1 (UniProt Q15116 25-170, limits assumed)
# T5 construct: also called PD-1 protein
# T5 sequence (Q15116 25-170 limits assumed): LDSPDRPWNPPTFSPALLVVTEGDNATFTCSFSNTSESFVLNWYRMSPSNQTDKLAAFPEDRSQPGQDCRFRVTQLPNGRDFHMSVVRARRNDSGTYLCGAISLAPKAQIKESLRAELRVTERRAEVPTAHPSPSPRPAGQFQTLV
# Assay: SPR; set-up and antigen form not restated
Kd,koff,kon,Binder
0.263 nM,3.06e-05 s⁻¹,117000 M⁻¹ s⁻¹,B2
0.129 nM,1.66e-05 s⁻¹,129000 M⁻¹ s⁻¹,B3
0.202 nM,3.75e-05 s⁻¹,186000 M⁻¹ s⁻¹,B4
0.222 nM,2.61e-05 s⁻¹,117000 M⁻¹ s⁻¹,B5
0.2 nM,2.43e-05 s⁻¹,121000 M⁻¹ s⁻¹,B6
0.268 nM,3.02e-05 s⁻¹,113000 M⁻¹ s⁻¹,B7
0.15 nM,2.18e-05 s⁻¹,145000 M⁻¹ s⁻¹,B8
0.235 nM,2.54e-05 s⁻¹,108000 M⁻¹ s⁻¹,B9
0.406 nM,5.03e-05 s⁻¹,124000 M⁻¹ s⁻¹,B10
0.179 nM,1.74e-05 s⁻¹,96800 M⁻¹ s⁻¹,B11

# Target: T6, human PD-1.Fc (human, UniProt Q15116 25-170, limits assumed)
# T6 construct: also called PD-1; Fc protein; PD-1.hFc; not shown: human IgG Fc fragment
# T6 sequence (Q15116 25-170 limits assumed): as above
# Assay: SPR, antibody captured on protein A, PD-1.Fc in flow
Kd,koff,kon,Binder
8.67 nM,6.4e-05 s⁻¹,7380 M⁻¹ s⁻¹,B1
2.75 nM,0.000153 s⁻¹,55800 M⁻¹ s⁻¹,B12
6.21 nM,0.000309 s⁻¹,49700 M⁻¹ s⁻¹,B13
83.1 nM,0.000179 s⁻¹,2150 M⁻¹ s⁻¹,B14
0.328 nM,6.77e-05 s⁻¹,206000 M⁻¹ s⁻¹,B15
1.33 nM,0.003 s⁻¹,2.26e+06 M⁻¹ s⁻¹,B16
10.4 nM,0.000508 s⁻¹,49000 M⁻¹ s⁻¹,B17
6.39 nM,0.000863 s⁻¹,135000 M⁻¹ s⁻¹,B18
0.219 nM,0.000323 s⁻¹,1.48e+06 M⁻¹ s⁻¹,B19
0.149 nM,0.000306 s⁻¹,2.05e+06 M⁻¹ s⁻¹,B20
7.03 nM,0.00092 s⁻¹,131000 M⁻¹ s⁻¹,B21
0.292 nM,6.88e-05 s⁻¹,236000 M⁻¹ s⁻¹,B22

# Target: T7, PD-1.His (UniProt Q15116 25-170, limits assumed)
# T7 construct: not shown: His tag
# T7 sequence (Q15116 25-170 limits assumed): as above
# Assay: SPR, antibody captured on protein A, PD-1.His in flow
Kd,koff,kon,Binder
15 nM,9.73e-05 s⁻¹,6480 M⁻¹ s⁻¹,B23
8.67 nM,6.4e-05 s⁻¹,7380 M⁻¹ s⁻¹,B1
8.25 nM,7.61e-05 s⁻¹,9220 M⁻¹ s⁻¹,B24
8.2 nM,4.59e-05 s⁻¹,5600 M⁻¹ s⁻¹,B25
11.8 nM,7.11e-05 s⁻¹,6000 M⁻¹ s⁻¹,B26
14 nM,9.07e-05 s⁻¹,6460 M⁻¹ s⁻¹,B27
0.598 nM,7.92e-05 s⁻¹,133000 M⁻¹ s⁻¹,B28
0.837 nM,0.000107 s⁻¹,128000 M⁻¹ s⁻¹,B29
1.01 nM,9.88e-05 s⁻¹,97600 M⁻¹ s⁻¹,B30
0.586 nM,7.79e-05 s⁻¹,133000 M⁻¹ s⁻¹,B31
